Data: paper PMC11117807, “Comparative Study of Field-Effect Transistors Based on Graphene Oxide and CVD Graphene in Highly Sensitive NT-proBNP Aptasensors”

How the values were obtained:
proBNP = proBNP (UniProt P16860 27-134); assay: aptamer-functionalised CVD graphene FET (GFET); after long-term storage; unexpected concentration-dependent response; 0.01x PBS with Tween (1x PBS: 2.7 mM KCl, 137 mM NaCl, 10 mM phosphate, pH 7.4); LOD in artificial saliva; surface blocked with ethanolamine and BSA; temperature not stated; conditions: protein: commercial
Chain of proBNP (P16860 27-134): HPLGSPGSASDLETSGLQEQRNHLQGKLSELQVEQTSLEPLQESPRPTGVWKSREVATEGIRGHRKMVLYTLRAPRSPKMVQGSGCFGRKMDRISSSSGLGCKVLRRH

NT-proBNP = NT-proBNP (UniProt P16860 27-102); assay: aptamer-functionalised rGO-FET; 0.01x PBS with Tween; response 10 fg/mL to 100 pg/mL; LOD 100 fg/mL in artificial saliva; 0.01x PBS with Tween (1x PBS: 2.7 mM KCl, 137 mM NaCl, 10 mM phosphate, pH 7.4); LOD in artificial saliva; surface blocked with ethanolamine and BSA; temperature not stated; conditions: protein: commercial
Chain of NT-proBNP (P16860 27-102): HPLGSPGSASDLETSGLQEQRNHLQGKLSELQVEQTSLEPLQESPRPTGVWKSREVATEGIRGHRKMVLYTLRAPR

B1: N20a aptamer (ssDNA)
DNA: GGCAGGAAGACAAACAGGTCGTAGTGGAAACTGTCCACCGTAGACCGGTTATCTAGTGGTCTGTGGTGCTGT
modifications: 5'-NH2
proBNP
  binding result: binds
NT-proBNP
  binding result: binds
